# Assay results taken from patent US20150344570A1 (published 2015).
# T1: FcγRIIa R (FcγRIIa allotype with Arg at position 131), extracellular domain with C-terminal His tag (human, UniProt P12318 34-217)
# T1 construct: extracellular domain; made in FreeStyle293 cells; analyte in the Biacore assay; also called FcγRIIa type R; 2aR
# T1 sequence (looked up): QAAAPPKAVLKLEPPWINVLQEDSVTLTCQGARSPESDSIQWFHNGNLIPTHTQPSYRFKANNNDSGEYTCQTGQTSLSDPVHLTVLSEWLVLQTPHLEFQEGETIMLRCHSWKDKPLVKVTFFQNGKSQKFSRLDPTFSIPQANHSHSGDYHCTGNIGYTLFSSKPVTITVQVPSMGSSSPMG
# T2: FcγRIIb, extracellular domain with C-terminal His tag (human, UniProt P31994 43-217)
# T2 construct: extracellular domain; made in FreeStyle293 cells; analyte in the Biacore assay; also called 2b; FcgRIIb
# T2 sequence (looked up): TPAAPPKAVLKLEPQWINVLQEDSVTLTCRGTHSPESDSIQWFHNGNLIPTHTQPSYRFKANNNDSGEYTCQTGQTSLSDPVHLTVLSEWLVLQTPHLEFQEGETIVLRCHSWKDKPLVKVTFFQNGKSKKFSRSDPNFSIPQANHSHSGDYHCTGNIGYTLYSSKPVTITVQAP
# B1: GpH7-A5/GpH7-B3 variant N325_14T/GpL16-k0 (antibody, human IgG1, kappa)
# heavy 1: not shown
# heavy 2: not shown
# light: DIVMTQSPLSLPVTPGEPASISCQASESLVHSNRNTYLHWYLQKPGQSPQLLIYKVSNRFSGVPDRFSGSGSGTDFTLKISRVEAEDVGVYYCSQNTHVPPTFGQGTKVEIERTVAAPSVFIFPPSDEQLKSGTASVVCLLNNFYPREAKVQWKVDNALQSGNSQESVTEQDSKDSTYSLSSTLTLSKADYEKHKVYACEVTHQGLSSPVTKSFNRGEC
# notes: heterodimerized IgG1, mutation in one H chain only; also called He Ab
# B2: GpH7-A5/GpH7-B3 variant N325_15Y/GpL16-k0 (antibody, human IgG1, kappa)
# heavy 1: not shown
# heavy 2: not shown
# light: B1 light
# notes: as for B1
# B3: GpH7-A5/GpH7-B3 variant P331_02A/GpL16-k0 (antibody, human IgG1, kappa)
# heavy 1: not shown
# heavy 2: not shown
# light: B1 light
# notes: as for B1
# B4: GpH7-A5/GpH7-B3 variant E333_05P/GpL16-k0 (antibody, human IgG1, kappa)
# heavy 1: not shown
# heavy 2: not shown
# light: B1 light
# notes: as for B1
# B5: GpH7-A5/GpH7-B3 variant P331_14T/GpL16-k0 (antibody, human IgG1, kappa)
# heavy 1: not shown
# heavy 2: not shown
# light: B1 light
# notes: as for B1
# B6: GpH7-A5/GpH7-B3 variant E333_09D/GpL16-k0 (antibody, human IgG1, kappa)
# heavy 1: not shown
# heavy 2: not shown
# light: B1 light
# notes: as for B1
# B7: GpH7-A5/GpH7-B3 variant P331_08L/GpL16-k0 (antibody, human IgG1, kappa)
# heavy 1: not shown
# heavy 2: not shown
# light: B1 light
# notes: as for B1
# B8: GpH7-A5/GpH7-B3 variant S324_04F/GpL16-k0 (antibody, human IgG1, kappa)
# heavy 1: not shown
# heavy 2: not shown
# light: B1 light
# notes: as for B1
# B9: GpH7-A5/GpH7-B3 variant E333_04F/GpL16-k0 (antibody, human IgG1, kappa)
# heavy 1: not shown
# heavy 2: not shown
# light: B1 light
# notes: as for B1
# B10: GpH7-A5/GpH7-B3 variant L234_04F/GpL16-k0 (antibody, human IgG1, kappa)
# heavy 1: not shown
# heavy 2: not shown
# light: B1 light
# notes: as for B1
# B11: GpH7-A5/GpH7-B3 variant E333_08L/GpL16-k0 (antibody, human IgG1, kappa)
# heavy 1: not shown
# heavy 2: not shown
# light: B1 light
# notes: as for B1
# B12: GpH7-A5/GpH7-B3 variant E333_07I/GpL16-k0 (antibody, human IgG1, kappa)
# heavy 1: not shown
# heavy 2: not shown
# light: B1 light
# notes: as for B1
# B13: GpH7-A5/GpH7-B3 variant E333_15Y/GpL16-k0 (antibody, human IgG1, kappa)
# heavy 1: not shown
# heavy 2: not shown
# light: B1 light
# notes: as for B1
# B14: GpH7-A5/GpH7-B3 variant I336_18N/GpL16-k0 (antibody, human IgG1, kappa)
# heavy 1: not shown
# heavy 2: not shown
# light: B1 light
# notes: as for B1
# B15: GpH7-A5/GpH7-B3 variant Q295_10E/GpL16-k0 (antibody, human IgG1, kappa)
# heavy 1: not shown
# heavy 2: not shown
# light: B1 light
# notes: as for B1
# B16: GpH7-A5/GpH7-B3 variant A330_19Q/GpL16-k0 (antibody, human IgG1, kappa)
# heavy 1: not shown
# heavy 2: not shown
# light: B1 light
# notes: as for B1
# B17: GpH7-A5/GpH7-B3 variant S239_14T/GpL16-k0 (antibody, human IgG1, kappa)
# heavy 1: not shown
# heavy 2: not shown
# light: B1 light
# notes: as for B1
# B18: GpH7-A5/GpH7-B3 variant K326_12R/GpL16-k0 (antibody, human IgG1, kappa)
# heavy 1: not shown
# heavy 2: not shown
# light: B1 light
# notes: as for B1
# B19: GpH7-A5/GpH7-B3 variant A330_11K/GpL16-k0 (antibody, human IgG1, kappa)
# heavy 1: not shown
# heavy 2: not shown
# light: B1 light
# notes: as for B1
# B20: GpH7-A5/GpH7-B3 variant A330_12R/GpL16-k0 (antibody, human IgG1, kappa)
# heavy 1: not shown
# heavy 2: not shown
# light: B1 light
# notes: as for B1
# B21: GpH7-A5/GpH7-B3 variant P331_09D/GpL16-k0 (antibody, human IgG1, kappa)
# heavy 1: not shown
# heavy 2: not shown
# light: B1 light
# notes: as for B1
# Target: T1, FcγRIIa R (FcγRIIa allotype with Arg at …)
# Experiment: SPR (Biacore), antibody captured, FcγR analyte; vs GpH7-A5/GpH7-B3/GpL16-k0 = 100
# Protocol: (§1) The heterodimerized antibodies He Abs in which one of the H chains was introduced with an alteration were assayed for their binding activities to each activating FcγR and inhibitory FcγR according to the method described in Example 4. […] The activating FcγRs in FIGS. 26, 27, 28, and 29 are FcγRIa, FcγRIIa (R), FcγRIIa (H), and FcγRIIIa, respectively.
# (§2) Analysis of interaction between objective antibody and the FcγR was carried out using Biacore T100 (GE Healthcare). HBS-EP+ (GE Healthcare) was used as the running buffer, and the measurement temperature was set to 25° C. Chips produced by immobilizing the antigen peptide by the amine coupling method to a Series S Sencor Chip CM5 (GE Healthcare), or alternatively, chips produced by allowing preliminarily biotinylated antigen peptides to interact with and immobilize onto a Series S Sensor Chip SA (certified) (GE Healthcare) were used. Antibodies of interest were captured onto an antigen peptide-immobilized chip, and allowed to interact to each FcγR diluted with running buffer. To regenerate and repeatedly use the chip, the antibodies captured on the chip were washed off by reacting 10 mM glycine-HCl, pH 1.5.
row,He/Con_2aR,Binder
1,105 relative (HeCon Ab = 100),B1
2,101 relative (HeCon Ab = 100),B2
3,106 relative (HeCon Ab = 100),B3
4,105 relative (HeCon Ab = 100),B4
5,104 relative (HeCon Ab = 100),B5
6,103 relative (HeCon Ab = 100),B6
7,102 relative (HeCon Ab = 100),B7
8,104 relative (HeCon Ab = 100),B8
9,102 relative (HeCon Ab = 100),B9
10,104 relative (HeCon Ab = 100),B10
11,103 relative (HeCon Ab = 100),B11
12,104 relative (HeCon Ab = 100),B12
13,101 relative (HeCon Ab = 100),B13
14,104 relative (HeCon Ab = 100),B14
15,102 relative (HeCon Ab = 100),B15
16,104 relative (HeCon Ab = 100),B16
17,103 relative (HeCon Ab = 100),B17
18,103 relative (HeCon Ab = 100),B18
19,110 relative (HeCon Ab = 100),B19
20,104 relative (HeCon Ab = 100),B20
21,102 relative (HeCon Ab = 100),B21

# Target: T2, FcγRIIb, extracellular domain with …
# Experiment: as above
# Protocol: as §1, §2
row,He/Con_2b,Binder
1,91.6 relative (HeCon Ab = 100),B1
2,99.5 relative (HeCon Ab = 100),B2
3,99.5 relative (HeCon Ab = 100),B3
4,97.7 relative (HeCon Ab = 100),B4
5,99.8 relative (HeCon Ab = 100),B5
6,94.3 relative (HeCon Ab = 100),B6
7,95.7 relative (HeCon Ab = 100),B7
8,89.1 relative (HeCon Ab = 100),B8
9,94.6 relative (HeCon Ab = 100),B9
10,99.8 relative (HeCon Ab = 100),B10
11,95 relative (HeCon Ab = 100),B11
12,96.2 relative (HeCon Ab = 100),B12
13,94.4 relative (HeCon Ab = 100),B13
14,97.6 relative (HeCon Ab = 100),B14
15,94.8 relative (HeCon Ab = 100),B15
16,90.8 relative (HeCon Ab = 100),B16
17,97.3 relative (HeCon Ab = 100),B17
18,89.2 relative (HeCon Ab = 100),B18
19,95 relative (HeCon Ab = 100),B19
20,84.8 relative (HeCon Ab = 100),B20
21,94.3 relative (HeCon Ab = 100),B21
